± gives the standard deviation of the averaged measurements or the uncertainty stated by the source.
Assays:
[1] = duplex formation entropy ΔS (Van't Hoff fit of HRM Tm); higher = smaller entropy loss on duplex formation; conditions: temperature for dG: 50 °C, NaCl: 500 mM (unadjusted)
Description: (§1)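 Duplex of the listed DNA strand with its complement, in 1x NNE buffer (500 mM NaCl, pH 7.0) with 1x EvaGreen. ΔH and ΔS come from a Van't Hoff linear fit of 1/Tm against ln(CT/4) over 1-20 uM, using HRM Tm values.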

[2] = duplex formation enthalpy ΔH (Van't Hoff fit of HRM Tm); higher = less exothermic duplex formation; conditions: temperature for dG: 50 °C, NaCl: 500 mM (unadjusted)
Description: as §1

[3] = duplex melting temperature (HRM, EvaGreen); higher = more stable duplex
Description: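 Listed DNA strand annealed 1:1 with its complementary strand (95 °C 5 min, 0.1 °C/s to 20 °C). Melted in 1x NNE buffer (500 mM NaCl, 10 mM Na2HPO4, 1 mM EDTA, pH 7.0) with 1x EvaGreen on a LightCycler96 (37 to 97 °C, 0.1 °C/s). Tm is the peak of -dF/dT at the stated total duplex concentration; 4 replicates are averaged. PS oligos are non-stereospecific (Rp/Sp mixtures).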

[4] = duplex formation free energy ΔG50 (Van't Hoff fit of HRM Tm); higher = less stable duplex; conditions: temperature for dG: 50 °C, NaCl: 500 mM (unadjusted)
Description: as §1

[5] = backbone: PO-PO (both strands phosphodiester DNA)
[6] = backbone: PS-PO (listed strand fully phosphorothioate, complement phosphodiester)
[7] = backbone: PS-PS (both strands fully phosphorothioate)
[8] = duplex concentration 1 µM, backbone: PO-PO (both strands phosphodiester DNA)
[9] = duplex concentration 1 µM, backbone: PS-PS (both strands fully phosphorothioate)
[10] = duplex concentration 2.5 µM, backbone: PO-PO (both strands phosphodiester DNA)
[11] = duplex concentration 2.5 µM, backbone: PS-PO (listed strand fully phosphorothioate, complement phosphodiester)
[12] = duplex concentration 2.5 µM, backbone: PS-PS (both strands fully phosphorothioate)
[13] = duplex concentration 5 µM, backbone: PO-PO (both strands phosphodiester DNA)
[14] = duplex concentration 5 µM, backbone: PS-PO (listed strand fully phosphorothioate, complement phosphodiester)
[15] = duplex concentration 5 µM, backbone: PS-PS (both strands fully phosphorothioate)
[16] = duplex concentration 7.5 µM, backbone: PO-PO (both strands phosphodiester DNA)
[17] = duplex concentration 7.5 µM, backbone: PS-PO (listed strand fully phosphorothioate, complement phosphodiester)
[18] = duplex concentration 7.5 µM, backbone: PS-PS (both strands fully phosphorothioate)
[19] = duplex concentration 10 µM, backbone: PO-PO (both strands phosphodiester DNA)
[20] = duplex concentration 10 µM, backbone: PS-PO (listed strand fully phosphorothioate, complement phosphodiester)
[21] = duplex concentration 10 µM, backbone: PS-PS (both strands fully phosphorothioate)
[22] = duplex concentration 15 µM, backbone: PO-PO (both strands phosphodiester DNA)
[23] = duplex concentration 15 µM, backbone: PS-PO (listed strand fully phosphorothioate, complement phosphodiester)
[24] = duplex concentration 15 µM, backbone: PS-PS (both strands fully phosphorothioate)
[25] = duplex concentration 20 µM, backbone: PO-PO (both strands phosphodiester DNA)
[26] = duplex concentration 20 µM, backbone: PS-PO (listed strand fully phosphorothioate, complement phosphodiester)
[27] = duplex concentration 20 µM, backbone: PS-PS (both strands fully phosphorothioate)
[28] = duplex concentration 1 µM, backbone: PS-PO (listed strand fully phosphorothioate, complement phosphodiester)

Sequence	duplex formation entropy ΔS [1, 5] [cal/mol/K]	duplex formation entropy ΔS [1, 6] [cal/mol/K]	duplex formation entropy ΔS [1, 7] [cal/mol/K]	duplex formation enthalpy ΔH [2, 5] [kcal/mol]	duplex formation enthalpy ΔH [2, 6] [kcal/mol]	duplex formation enthalpy ΔH [2, 7] [kcal/mol]	duplex melting temperature [3, 8] [°C]	duplex melting temperature [3, 9] [°C]	duplex melting temperature [3, 10] [°C]	duplex melting temperature [3, 11] [°C]	duplex melting temperature [3, 12] [°C]	duplex melting temperature [3, 13] [°C]	duplex melting temperature [3, 14] [°C]	duplex melting temperature [3, 15] [°C]	duplex melting temperature [3, 16] [°C]	duplex melting temperature [3, 17] [°C]	duplex melting temperature [3, 18] [°C]	duplex melting temperature [3, 19] [°C]	duplex melting temperature [3, 20] [°C]	duplex melting temperature [3, 21] [°C]	duplex melting temperature [3, 22] [°C]	duplex melting temperature [3, 23] [°C]	duplex melting temperature [3, 24] [°C]	duplex melting temperature [3, 25] [°C]	duplex melting temperature [3, 26] [°C]	duplex melting temperature [3, 27] [°C]	duplex formation free energy ΔG50 [4, 5] [kcal/mol]	duplex formation free energy ΔG50 [4, 6] [kcal/mol]	duplex formation free energy ΔG50 [4, 7] [kcal/mol]	duplex melting temperature [3, 28] [°C]
CGTGTGGATAATTAGCT	-220 ± 5.9	-217 ± 7.2	-221 ± 9.2	-83.9 ± 2	-81 ± 2.4	-80.3 ± 3	61.98 ± 0.083	45.73 ± 0.44	64.1 ± 0.3	56.74 ± 0.17	48.55 ± 0.15	65.87 ± 0.1	58.92 ± 0.14	50.38 ± 0.16	66.87 ± 0.1	59.81 ± 0.096	51.21 ± 0.21	67.8 ± 0.11	60.627 ± 0.006	51.88 ± 0.24	68.959 ± 0.05	61.686 ± 0.014	52.84 ± 0.21	69.9 ± 0.083	62.48 ± 0.14	53.67 ± 0.26	-12.67 ± 0.099	-10.86 ± 0.074	-8.757 ± 0.024	
CTAAACTGTTATAGCCGG	-219 ± 24	-205 ± 9.7	-166 ± 7.6	-83.8 ± 8.2	-77.5 ± 3.3	-62.5 ± 2.5		46.18 ± 0.36	66.43 ± 0.32	58.77 ± 0.43	48.97 ± 0.4	67.83 ± 0.25	60.28 ± 0.38	51.09 ± 0.26	68.83 ± 0.28	61.66 ± 0.5	52.63 ± 0.18	70.13 ± 0.37	62.55 ± 0.4	53.4 ± 0.36	71.19 ± 0.13	63.71 ± 0.22	55.1 ± 0.25	72.08 ± 0.077	64.43 ± 0.18	56.27 ± 0.23	-13.2 ± 0.46	-11.2 ± 0.12	-8.979 ± 0.029	
CTACCAGCGGCGCCGTT	-235 ± 13	-163 ± 6.5	-185 ± 5.4	-92.6 ± 4.5	-66.1 ± 2.3	-72.5 ± 1.8		63.52 ± 0.26	78.66 ± 0.28	71.69 ± 0.5	66.46 ± 0.23	80.52 ± 0.35	74.62 ± 0.28	68.88 ± 0.19	81.81 ± 0.23	75.97 ± 0.31	70.02 ± 0.24	82.55 ± 0.18	76.92 ± 0.17	71 ± 0.18	83.52 ± 0.2	78.15 ± 0.26	72.23 ± 0.12	84.24 ± 0.2	79.05 ± 0.47	73.06 ± 0.32	-16.7 ± 0.4	-13.3 ± 0.16	-12.69 ± 0.1	68.2 ± 0.97
CTCAGAGTAGAGCCGA	-179 ± 6.5	-183 ± 3.4	-182 ± 8.6	-70.2 ± 2.2	-70.4 ± 1.1	-68.5 ± 2.8	63.68 ± 0.069	49.9 ± 1.1	65.7 ± 0.74	60.75 ± 0.31	53.32 ± 0.14	68.22 ± 0.15	63.08 ± 0.2	55.65 ± 0.051	69.47 ± 0.26	64.34 ± 0.11	56.75 ± 0.12	70.41 ± 0.2	65.17 ± 0.17	57.39 ± 0.097	71.91 ± 0.23	66.49 ± 0.15	58.63 ± 0.12	72.85 ± 0.2	67.47 ± 0.082	59.42 ± 0.24	-12.5 ± 0.13	-11.45 ± 0.047	-9.827 ± 0.057	57.92 ± 0.21
CTCGGAGGCCCCATTTA	-172 ± 7.8	-167 ± 3.5	-194 ± 6.1	-68.7 ± 2.7	-66 ± 1.2	-73.9 ± 2		56.27 ± 0.32	69.45 ± 0.55	63.65 ± 0.44	59.31 ± 0.12	72.34 ± 0.17	66.33 ± 0.23	61.51 ± 0.1	73.72 ± 0.22	67.63 ± 0.23	62.63 ± 0.089	74.68 ± 0.39	68.67 ± 0.14	63.34 ± 0.086	76.04 ± 0.34	69.97 ± 0.17	64.55 ± 0.08	76.97 ± 0.28	70.91 ± 0.14	65.31 ± 0.13	-13.2 ± 0.19	-11.87 ± 0.061	-11.22 ± 0.074	60.53 ± 0.43
CTGTAAGGCGATATGTT	-202 ± 7.4	-192 ± 7.4	-201 ± 4.6	-77.7 ± 2.5	-72.7 ± 2.5	-73.8 ± 1.5	62.12 ± 0.3	46.56 ± 0.46	64 ± 0.26	57.45 ± 0.17	49.35 ± 0.22	66.38 ± 0.2	59.646 ± 0.025	51.33 ± 0.25	67.39 ± 0.14	60.55 ± 0.14	52.31 ± 0.059	68.42 ± 0.14	61.364 ± 0.05	53.15 ± 0.1	69.61 ± 0.1	62.62 ± 0.11	54.29 ± 0.068	70.55 ± 0.11	63.366 ± 0.049	55.12 ± 0.067	-12.5 ± 0.13	-10.76 ± 0.077	-8.999 ± 0.015	54.19 ± 0.32
CTTTTGTGCGGGTAGC	-179 ± 11	-176 ± 7.2	-156 ± 7.6	-70.2 ± 3.7	-67.9 ± 2.4	-60 ± 2.5	63.84 ± 0.57	48.71 ± 0.41	65.75 ± 0.34	59.24 ± 0.32	52.48 ± 0.25	68.14 ± 0.14	61.53 ± 0.35	55.08 ± 0.22	69.35 ± 0.31	62.94 ± 0.29	56.37 ± 0.13	70.49 ± 0.15	63.93 ± 0.083	57.22 ± 0.12	71.94 ± 0.13	65.13 ± 0.068	58.45 ± 0.21	73.2 ± 0.36	65.98 ± 0.35	59.6 ± 0.74	-12.5 ± 0.21	-11.07 ± 0.095	-9.593 ± 0.049	56.1
GAACCGTTGATGATCTC	-208 ± 4.8	-210 ± 5	-189 ± 7.2	-80.1 ± 1.6	-78.8 ± 1.7	-70.3 ± 2.3	63.4	46.68 ± 0.22	65.33 ± 0.31	57.31 ± 0.16	49.91 ± 0.24	67.16 ± 0.13	59.39 ± 0.12	51.98 ± 0.084	68.29 ± 0.098	60.41 ± 0.13	53.01 ± 0.082	69.2 ± 0.096	61.285 ± 0.052	53.86 ± 0.097	70.38 ± 0.088	62.38 ± 0.1	54.9 ± 0.045	71.31 ± 0.079	63.117 ± 0.054	55.75 ± 0.06	-12.78 ± 0.09	-10.93 ± 0.053	-9.101 ± 0.027	54.79 ± 0.14
GAACTGCCACTACCAA	-178 ± 5.8	-185 ± 4.7	-172 ± 7.9	-69.8 ± 2	-70.8 ± 1.6	-65.1 ± 2.6	63.2	48.68 ± 0.086	64.85 ± 0.39	58.65 ± 0.087	52.19 ± 0.14	67.25 ± 0.085	60.93 ± 0.068	54.589 ± 0.051	68.57 ± 0.17	62.25 ± 0.15	55.833 ± 0.044	69.531 ± 0.05	63.17 ± 0.12	56.65 ± 0.09	71 ± 0.09	64.25 ± 0.11	57.7 ± 0.15	71.922 ± 0.013	65.26 ± 0.12	58.53 ± 0.13	-12.27 ± 0.11	-11.04 ± 0.059	-9.573 ± 0.046	
